{"source": "paper PMC7474069", "about": "“Cystathionine β-synthase is involved in cysteine biosynthesis and H2S generation in Toxoplasma gondii” (Scientific Reports, 2020)", "key": {"TgCBS [1]": {"target": "T1, TgCBS (Toxoplasma gondii, UniProt A0A125YSJ9)", "T1 construct": "gene TGME49_259180; mainly dimer with some tetramer; no heme, PLP at Lys56", "T1 sequence (A0A125YSJ9 1-514)": "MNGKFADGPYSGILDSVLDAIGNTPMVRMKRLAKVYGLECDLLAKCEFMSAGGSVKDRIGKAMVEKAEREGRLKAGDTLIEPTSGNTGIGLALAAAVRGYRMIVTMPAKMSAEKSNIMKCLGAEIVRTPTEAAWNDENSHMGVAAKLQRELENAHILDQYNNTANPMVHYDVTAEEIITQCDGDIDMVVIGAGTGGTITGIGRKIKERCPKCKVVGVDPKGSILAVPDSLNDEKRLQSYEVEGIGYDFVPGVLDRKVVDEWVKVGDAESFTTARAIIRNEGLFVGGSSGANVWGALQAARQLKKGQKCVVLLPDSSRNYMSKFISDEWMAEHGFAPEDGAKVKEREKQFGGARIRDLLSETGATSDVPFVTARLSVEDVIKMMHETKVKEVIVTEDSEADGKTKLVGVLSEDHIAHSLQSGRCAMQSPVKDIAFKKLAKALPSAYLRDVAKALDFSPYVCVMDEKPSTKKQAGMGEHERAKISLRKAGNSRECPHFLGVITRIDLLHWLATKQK", "experiment": "intrinsic fluorescence titration of apo-enzyme", "assay_type": "binding"}, "[2]": {"tested_on": "N[C@@H](CCSC[C@H](N)C(=O)O)C(=O)O", "experiment": "purified protein", "settings": "CBS coupled-assay conditions (MBP buffer pH 9; 37 °C)"}, "N[C@@H](CO)C(=O)O": {"tested_on": "N[C@@H](CO)C(=O)O", "experiment": "purified protein", "settings": "CBS coupled-assay conditions (MBP buffer pH 9; 37 °C)"}, "TgCBS [3]": {"target": "T1, TgCBS", "experiment": "CD spectroscopy (aminoacrylate formation)", "assay_type": "binding", "settings": "3 mM; 20 mM sodium phosphate pH 8.5; 25 °C"}, "TgCBS [4]": {"target": "T1, TgCBS", "experiment": "CD spectroscopy (external aldimine formation)", "assay_type": "binding", "settings": "25 mM; 20 mM sodium phosphate pH 8.5; 25 °C; substrate analog"}, "TgCBS [5]": {"target": "T1, TgCBS", "experiment": "lead acetate H2S assay, substrate competition", "assay_type": "biochemical", "from_the_text": "lead acetate H2S assay, substrate competition on TgCBS | The IC50 value, i.e. the concentration of L-Ser at which the H2S production"}, "TgCBS [6]": {"target": "T1, TgCBS", "experiment": "lead acetate H2S assay, biphasic fit", "assay_type": "biochemical", "settings": "substrate inhibition in beta-elimination; L-Cys alone; 50 mM Hepes pH 7.4; 37 °C; PLP 20 µM", "from_the_text": "(§1) lead acetate H2S assay, biphasic fit on TgCBS"}, "[7]": {"substrate": "N[C@@H](CS)C(=O)O", "experiment": "lead acetate H2S assay, biphasic fit", "assay_type": "biochemical, Toxoplasma gondii", "settings": "beta-elimination of L-Cys alone, site 1, 50 mM Hepes pH 7.4, 37 °C, PLP 20 µM", "from_the_text": "as §1"}, "purified protein [8]": {"substrate": "N[C@@H](CCS)C(=O)O", "experiment": "purified protein", "assay_type": "biochemical, Toxoplasma gondii", "settings": "co-substrate L-Ser, MBP buffer pH 9, 37 °C, PLP 20 µM"}, "purified protein [9]": {"substrate": "CC(=O)OC[C@H](N)C(=O)O", "experiment": "purified protein", "assay_type": "biochemical, Toxoplasma gondii", "settings": "co-substrate L-Hcys, MBP buffer pH 9, 37 °C, PLP 20 µM"}, "purified protein [10]": {"substrate": "N[C@@H](CO)C(=O)O", "experiment": "purified protein", "assay_type": "biochemical, Toxoplasma gondii", "settings": "co-substrate L-Hcys, MBP buffer pH 9, 37 °C, PLP 20 µM"}, "[11]": {"target": "the molecule itself", "experiment": "SEC; Superdex 200 10/30 GL, TgCBS at 1 mg/mL, 20 mM sodium phosphate pH 8.5, 150 mM NaCl, 0.1 mM DTT; masses from a calibration curve of standard proteins"}}, "note": "“And” between values parts separate entries of the source, which are not always exact repeats. Identical values can stand only once.", "data": [{"molecule": "Cc1ncc(COP(=O)(O)O)c(C=O)c1O", "note": "[PLP]", "values": [{"measurement": "Kd", "setting": "TgCBS [1]", "value": "0.00013 ± 1e-05", "unit": "mM"}]}, {"molecule": "recombinant CBL (Corynebacterium diphtheriae NCTC 13129)", "values": [{"measurement": "Km", "setting": "[2]", "value": "800 ± 100", "unit": "µM"}, {"measurement": "kcat", "setting": "[2]", "value": "93 ± 2", "unit": "s⁻¹"}, {"measurement": "Km", "setting": "N[C@@H](CO)C(=O)O", "value": "7500 ± 1400", "unit": "µM"}, {"measurement": "kcat", "setting": "N[C@@H](CO)C(=O)O", "value": "1.2 ± 0.2", "unit": "s⁻¹"}]}, {"molecule": "NC(CSCC(N)C(=O)O)C(=O)O", "note": "(stereo not shown) [lanthionine]", "values": [{"measurement": "CD spectroscopy (aminoacrylate formation)", "setting": "TgCBS [3]", "value": "Binding of lanthionine to the enzyme"}]}, {"molecule": "C[C@H](N)C(=O)O", "note": "[L-Ala]", "values": [{"measurement": "CD spectroscopy (external aldimine formation)", "setting": "TgCBS [4]", "value": "Addition of the analog L-alanine (L-Ala) to TgCBS resulted in a shift"}]}, {"molecule": "N[C@@H](CO)C(=O)O", "note": "[L-Ser]", "values": [{"measurement": "IC50", "setting": "TgCBS [5]", "value": "6.7 ± 1.3", "unit": "mM"}]}, {"molecule": "N[C@@H](CS)C(=O)O", "note": "[L-Cys]", "values": [{"measurement": "TgCBS", "setting": "TgCBS [6]", "value": "36 ± 4", "unit": "mM"}]}, {"molecule": "TgCBS (Toxoplasma gondii ME49) (protein, mainly dimer with some tetramer; no heme, PLP at Lys56) MNGKFADGPYSGILDSVLDAIGNTPMVRMKRLAKVYGLECDLLAKCEFMSAGGSVKDRIGKAMVEKAEREGRLKAGDTLIEPTSGNTGIGLALAAAVRGYRMIVTMPAKMSAEKSNIMKCLGAEIVRTPTEAAWNDENSHMGVAAKLQRELENAHILDQYNNTANPMVHYDVTAEEIITQCDGDIDMVVIGAGTGGTITGIGRKIKERCPKCKVVGVDPKGSILAVPDSLNDEKRLQSYEVEGIGYDFVPGVLDRKVVDEWVKVGDAESFTTARAIIRNEGLFVGGSSGANVWGALQAARQLKKGQKCVVLLPDSSRNYMSKFISDEWMAEHGFAPEDGAKVKEREKQFGGARIRDLLSETGATSDVPFVTARLSVEDVIKMMHETKVKEVIVTEDSEADGKTKLVGVLSEDHIAHSLQSGRCAMQSPVKDIAFKKLAKALPSAYLRDVAKALDFSPYVCVMDEKPSTKKQAGMGEHERAKISLRKAGNSRECPHFLGVITRIDLLHWLATKQK", "values": [{"measurement": "Km", "setting": "[7]", "value": "4700 ± 900", "unit": "µM"}, {"measurement": "kcat", "setting": "[7]", "value": "2.6 ± 0.3", "unit": "s⁻¹"}, {"measurement": "kcat/Km", "setting": "[7]", "value": "600 ± 200", "unit": "M⁻¹ s⁻¹"}, {"measurement": "Km", "setting": "purified protein [8]", "value": "230 ± 30", "unit": "µM"}, {"measurement": "kcat", "setting": "purified protein [8]", "value": "6.3 ± 0.4", "unit": "s⁻¹"}, {"measurement": "kcat/Km", "setting": "purified protein [8]", "value": "27000 ± 5000", "unit": "M⁻¹ s⁻¹"}, {"measurement": "Km", "setting": "purified protein [9]", "value": "1300 ± 200", "unit": "µM"}, {"measurement": "kcat", "setting": "purified protein [9]", "value": "5.5 ± 0.1", "unit": "s⁻¹"}, {"measurement": "kcat/Km", "setting": "purified protein [9]", "value": "4200 ± 700", "unit": "M⁻¹ s⁻¹"}, {"measurement": "Km", "setting": "purified protein [10]", "value": "420 ± 40", "unit": "µM"}, {"measurement": "kcat", "setting": "purified protein [10]", "value": "6.3 ± 0.4", "unit": "s⁻¹"}, {"measurement": "kcat/Km", "setting": "purified protein [10]", "value": "15000 ± 2000", "unit": "M⁻¹ s⁻¹"}]}, {"molecule": "Cystathionine β-synthase from Toxoplasma gondii (enzyme, Toxoplasma gondii (strain ME49), UniProt A0A125YSJ9 1-514, looked up, PLP bound to active site Lys56 (internal aldimine), Cystathionine β-synthase, Toxoplasma gondii strain ME49, gene TGME49_259180 (ToxoDB), complete cDNA as a synthetic gene; 514 amino acids (55.8 kDa); Cloned into pET21a (NdeI/BamHI); Mainly a dimer in solution, with some higher-order oligomers (e.g. tetramer); also called TgCBS; T. gondii CBS; source: E. coli Rosetta (DE3), purified (Ni-sepharose)) MNGKFADGPYSGILDSVLDAIGNTPMVRMKRLAKVYGLECDLLAKCEFMSAGGSVKDRIGKAMVEKAEREGRLKAGDTLIEPTSGNTGIGLALAAAVRGYRMIVTMPAKMSAEKSNIMKCLGAEIVRTPTEAAWNDENSHMGVAAKLQRELENAHILDQYNNTANPMVHYDVTAEEIITQCDGDIDMVVIGAGTGGTITGIGRKIKERCPKCKVVGVDPKGSILAVPDSLNDEKRLQSYEVEGIGYDFVPGVLDRKVVDEWVKVGDAESFTTARAIIRNEGLFVGGSSGANVWGALQAARQLKKGQKCVVLLPDSSRNYMSKFISDEWMAEHGFAPEDGAKVKEREKQFGGARIRDLLSETGATSDVPFVTARLSVEDVIKMMHETKVKEVIVTEDSEADGKTKLVGVLSEDHIAHSLQSGRCAMQSPVKDIAFKKLAKALPSAYLRDVAKALDFSPYVCVMDEKPSTKKQAGMGEHERAKISLRKAGNSRECPHFLGVITRIDLLHWLATKQK", "values": [{"measurement": "stoichiometry N", "setting": "[11]", "value": "2 and 4"}]}]}
